Results from article PMC4513872.

Biological target: C-Intein_C-Cas9_v1 (Nostoc punctiforme | Streptococcus pyogenes) (UniProt Q99ZW2)

percentage of indels at the endogenous Fus locus in Neuro-2a cells (T7 endonuclease I assay) after transfection of both moieties; wild-type SpCas9 gave 23.1%: 22.7%
Substance: N-Cas9_N-Intein_v1 (from UniProt Q99ZW2 1-573)
